Source: patent US20220119534A1 (DRAGONFLY THERAPEUTICS, published 2022)

Legend:
Human CLEC12A-His = biological target: T1, Human CLEC12A-His (human, UniProt Q5QGZ9 65-265); assay: SPR Biacore 8K 37 C; TriNKET captured on anti-hFc chip, hCLEC12A-His as analyte; 1:1 fit; control sample, n=2
T1 construct: Recombinant soluble protein made in house (Dragonfly Tx); The hCLEC12A spot of the HuProt array is written under this molecule as well; also called hCLEC12A-His; hCLEC12A; not shown: His tag
T1 sequence: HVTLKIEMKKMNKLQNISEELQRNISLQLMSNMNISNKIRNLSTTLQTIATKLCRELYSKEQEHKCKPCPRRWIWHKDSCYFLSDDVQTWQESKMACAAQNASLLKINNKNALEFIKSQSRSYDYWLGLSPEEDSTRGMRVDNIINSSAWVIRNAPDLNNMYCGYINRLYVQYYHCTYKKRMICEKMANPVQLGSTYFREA

mFc-hNKG2D [1] = biological target: T2, mFc-hNKG2D (human, UniProt P26718 73-216); assay: SPR Biacore 8K 37 C; mFc-hNKG2D captured on anti-mFc chip, TriNKET as analyte; steady state fit; control, n=3
T2 construct: extracellular domain; Made in house (Dragonfly Tx); the order of tag and ECD follows the name mFc-hNKG2D; also called mFc-tagged human NKG2D; not shown: mouse Fc tag
T2 sequence (looked up): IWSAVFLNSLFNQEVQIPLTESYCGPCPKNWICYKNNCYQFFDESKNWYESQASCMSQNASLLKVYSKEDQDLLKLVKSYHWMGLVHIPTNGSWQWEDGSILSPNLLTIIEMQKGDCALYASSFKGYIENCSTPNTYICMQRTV

mFc-hNKG2D [2] = biological target: T2, mFc-hNKG2D; assay: SPR Biacore 8K 37 C; mFc-hNKG2D captured on anti-mFc chip, TriNKET as analyte; 1:1 kinetic fit; after 0.02% H2O2 24 h
Method: Association was monitored for 60 seconds and dissociation was monitored for 60 seconds. Surfaces were regenerated between cycles with three pulses of 10 mM glycine-HCl, pH 1.7 injected for 20 seconds at 100 μL/min. HBS-EP+ (1×) buffer was used throughout the experiment. Data were analyzed using Biacore 8K Insight evaluation software (GE Healthcare).

mFc-hNKG2D [3] = biological target: T2, mFc-hNKG2D; assay: SPR Biacore 8K 37 C; mFc-hNKG2D captured on anti-mFc chip, TriNKET as analyte; steady state fit; after low pH hold, n=3
mFc-hNKG2D [4] = biological target: T2, mFc-hNKG2D; assay: SPR Biacore 8K 37 C; mFc-hNKG2D captured on anti-mFc chip, TriNKET as analyte; 1:1 kinetic fit; control, n=3

B1: F3'-1602 TriNKET (bispecific antibody, human IgG1, kappa)
chain: QLQLQESGPGLVKPSETLSLTCTVSGFSLTNYGLHWIRQPPGKCLEWIGVIWSGGKTDYNPSLKSRVTISKDTSKNQFSLKLSSVQAADTAVYYCAKYDYDDSLDYWGQGTLVTVSSGGGGSGGGGSGGGGSGGGGSDIQMTQSPSSLSASVGDRVTITCHASQNINFWLSWYQQKPGKAPKLLIYEASNLHTGVPSRFSGSGSGTRFTLTISSLQPEDIATYYCQQSHSYPLTFGCGTKLEIKGSDKTHTCPPCPAPELLGGPSVFLFPPKPKDTLMISRTPEVTCVVVDVSHEDPEVKFNWYVDGVEVHNAKTKPREEQYNSTYRVVSVLTVLHQDWLNGKEYKCKVSNKALPAPIEKTISKAKGQPREPRVYTLPPCRDELTKNQVSLTCLVKGFYPSDIAVEWESNGQPENNYKTTPPVLVSDGSFTLYSKLTVDKSRWQQGNVFSCSVMHEALHNHYTQKSLSLSPG
heavy: EVQLVESGGGLVKPGGSLRLSCAASGFTFSSYSMNWVRQAPGKGLEWVSSISSSSSYIYYADSVKGRFTISRDNAKNSLYLQMNSLRAEDTAVYYCARGAPIGAAAGWFDPWGQGTLVTVSSASTKGPSVFPLAPSSKSTSGGTAALGCLVKDYFPEPVTVSWNSGALTSGVHTFPAVLQSSGLYSLSSVVTVPSSSLGTQTYICNVNHKPSNTKVDKKVEPKSCDKTHTCPPCPAPELLGGPSVFLFPPKPKDTLMISRTPEVTCVVVDVSHEDPEVKFNWYVDGVEVHNAKTKPREEQYNSTYRVVSVLTVLHQDWLNGKEYKCKVSNKALPAPIEKTISKAKGQPREPQVCTLPPSRDELTENQVSLTCLVKGFYPSDIAVEWESNGQPENNYKTTPPVLDSDGSFFLYSWLTVDKSRWQQGNVFSCSVMHEALHNHYTQKSLSLSPG
light: DIQMTQSPSSVSASVGDRVTITCRASQGISSWLAWYQQKPGKAPKLLIYAASSLQSGVPSRFSGSGSGTDFTLTISSLQPEDFATYYCQQGVSFPRTFGGGTKVEIKRTVAAPSVFIFPPSDEQLKSGTASVVCLLNNFYPREAKVQWKVDNALQSGNSQESVTEQDSKDSTYSLSSTLTLSKADYEKHKVYACEVTHQGLSSPVTKSFNRGEC
notes: Trispecific F3' format: CLEC12A scFv-Fc paired with NKG2D Fab-Fc; Stressed and control samples of the stability studies are the same molecule; also called AB0237
Question: With B1 as the binder, how does the Kd (Human CLEC12A-His) read?
Answer: 1.11 nM

Question: What about the koff (Human CLEC12A-His) of the same binder?
Answer: 0.000873 s⁻¹

Question: What about the kon (Human CLEC12A-His) of the same binder?
Answer: 791000 M⁻¹ s⁻¹

Question: And the Kd (mFc-hNKG2D [1])?
Answer: 710 nM

Question: And the Kd (mFc-hNKG2D [2])?
Answer: 722 nM

Question: What about the koff (mFc-hNKG2D [2]) of the same binder?
Answer: 0.107 s⁻¹

Question: What about the kon (mFc-hNKG2D [2]) of the same binder?
Answer: 148000 M⁻¹ s⁻¹

Question: And the Kd (mFc-hNKG2D [3])?
Answer: 672 nM

Question: And the Kd (mFc-hNKG2D [4])?
Answer: 714 nM

Question: What about the koff (mFc-hNKG2D [4]) of the same binder?
Answer: 0.146 s⁻¹

Question: And the kon (mFc-hNKG2D [4])?
Answer: 206000 M⁻¹ s⁻¹
